Data reported in patent US20140271661A1 (published 2014).
Where a chain is given by its changes, count along the chain named. Values belong to the binder of their own block, whether it stands above or below them.

Target: human antithrombin β complexed with heparin (human ATβH) (human, UniProt P01008 33-464, lacks glycosylation at Asn135 (β glyco-isoform); complexed with heparin)
Assay: Biacore

Sequence of human antithrombin β complexed with heparin (human ATβH) (P01008 33-464, one chain of several): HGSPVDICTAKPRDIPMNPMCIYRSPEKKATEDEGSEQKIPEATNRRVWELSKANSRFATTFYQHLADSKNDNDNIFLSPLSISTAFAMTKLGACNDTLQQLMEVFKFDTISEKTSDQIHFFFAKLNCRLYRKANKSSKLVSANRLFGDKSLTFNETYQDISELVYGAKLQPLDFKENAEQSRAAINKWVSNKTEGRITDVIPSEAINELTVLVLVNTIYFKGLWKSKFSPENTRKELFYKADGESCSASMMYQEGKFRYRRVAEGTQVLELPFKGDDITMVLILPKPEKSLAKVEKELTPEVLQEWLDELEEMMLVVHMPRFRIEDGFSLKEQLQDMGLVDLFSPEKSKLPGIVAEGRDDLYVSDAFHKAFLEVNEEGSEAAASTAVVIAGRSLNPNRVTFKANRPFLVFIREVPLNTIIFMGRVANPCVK

Kd: 17.2 nM
B1: TPP-2019 hIgG (antibody, V domains shown)
VH: EVQLLESGGGLVQPGGSLRLSCAASGFTFSRYAMYWVRQAPGKGLEWVSRISPSGGKTHYADSVKGRFTISRDNSKNTLYLQMNSLRAEDTAVYYCARLSQTGYYPHYHYYGMDVWGQGTTVTVSS
VL: DIQMTQSPATLSLSPGERATLSCRASQRVSSSYLTWYQQKPGQAPRLLIYGASSRATGIPDRFSGSGSGTDFTLTISRLEPEDFAVYYCQQYDSTPPLTFGGGTKVEIKR

Kd: 11.9 nM
B2: TPP2009 hIgG1 (antibody, V domains shown)
VH: EVQLLESGGGLVQPGGSLRLSCAASGFTFSAYRMGWVRQAPGKGLEWVSRIYSSGGRTRYADSVKGRFTISRDNSKNTLYLQMNSLRAEDTAVYYCAREKASDLSGSFSEALDYWGQGTLVTVSS
VL: AQSVLTQDPAVSVALGQTVRITCQGDSLRSYYASWYQQKPGQAPVLVIYGKNNRPSGIPDRFSGSSSGNTASLTITGAQAEDEADYYCNSRDSSGNHLVFGGGTKLTVLG

Kd: 18.9 nM
B3: TPP-2016 hIgG (antibody, V domains shown)
VH: B2 VH with A31K, G35D, Y52G, S53P, R57K, R59T, A101T, F108Y
VL: DIQMTQSPATLSVSPGERATLSCRASQNINRNLAWYQQKPGRAPRLLIHTASTRAPGVPVRITGSGSGTEFTLTISSLEPEDFAVYFCQQYASPPRTFGQGTKVEIKR
